Experimental data: the Human Domainome abundance scans (Beltran et al. 2025)
± gives the uncertainty stated by the source.

B1: POU domain, class 3, transcription factor 1, residues 247 to 324; numbered along this chain, Q03052 (parent)
chain: EDAPSSDDLEQFAKQFKQRRIKLGFTQADVGLALGTLYGNVFSQTTICRFEALQLSFKNMCKLKPLLNKWLEETDSSS

Variants of: B1
Assay: abundance fitness (aPCA) (normalised: wild type 0, dead -1); higher = more abundant; growth selection in yeast, the domain comes from the species named
Details: Homo sapiens

Abundance fitness, by site and new letter:
Q18: E 0.028 ± 0.068 | H 0.031 ± 0.12 | P -1.16 ± 0.48 | M -0.472 ± 0.15 | N -0.276 ± 0.17 | A 0.074 ± 0.059 | D -0.259 ± 0.31 | K 0.138 ± 0.087 | Y -0.824 ± 0.36 | F -0.304 ± 0.48 | C -0.428 ± 0.24 | R -0.204 ± 0.064 | L -0.25 ± 0.074 | T -0.034 ± 0.083 | W -0.245 ± 0.1 | V -0.316 ± 0.083 | S -0.027 ± 0.072
F12: E -0.738 ± 0.31 | V -0.55 ± 0.14 | R -0.62 ± 0.12 | G -1.11 ± 0.23 | P -0.492 ± 0.2 | S -0.544 ± 0.14 | N -0.192 ± 0.3 | A -0.391 ± 0.12 | W -0.362 ± 0.12 | I -0.553 ± 0.45 | L -0.547 ± 0.13 | Q -0.844 ± 0.31 | T -1.16 ± 0.46 | C -0.881 ± 0.39
K14: C -0.27 ± 0.12 | Q 0.048 ± 0.084 | N -0.211 ± 0.15 | P -0.573 ± 0.26 | L -0.159 ± 0.076 | D -0.78 ± 0.35 | W -0.419 ± 0.11 | R -0.195 ± 0.064 | I -0.19 ± 0.17 | T -0.03 ± 0.1 | Y -0.233 ± 0.13 | F -0.386 ± 0.18 | S -0.492 ± 0.1 | H 0.468 ± 0.16 | E -0.053 ± 0.077
R19: L -0.613 ± 0.13 | N -0.071 ± 0.2 | K 0.259 ± 0.11 | T -0.04 ± 0.081 | W -0.484 ± 0.12 | M 0.023 ± 0.1 | I -0.212 ± 0.18 | E -0.36 ± 0.12 | Q -0.218 ± 0.09 | S -0.232 ± 0.085 | V -0.586 ± 0.11 | P -0.79 ± 0.2 | G -0.495 ± 0.079 | H -0.456 ± 0.21
E10: T -0.121 ± 0.1 | Y -0.244 ± 0.18 | R -0.107 ± 0.057 | S -0.433 ± 0.1 | W -0.107 ± 0.089
A13: M -0.383 ± 0.17 | S -0.53 ± 0.1 | W -0.903 ± 0.27 | E -0.416 ± 0.14 | I -0.43 ± 0.14 | F -0.972 ± 0.41 | C 0.113 ± 0.086 | V -0.047 ± 0.063 | K -0.402 ± 0.15 | D -1.07 ± 0.45 | G -0.828 ± 0.14 | T -0.691 ± 0.18 | Y -0.505 ± 0.2
I21: L -0.184 ± 0.061 | D -0.527 ± 0.21 | K -0.349 ± 0.12 | C -0.521 ± 0.16 | F -0.827 ± 0.41 | E 0.005 ± 0.073 | A -0.391 ± 0.089 | G -0.689 ± 0.085 | H -0.64 ± 0.29
Q11: R -0.149 ± 0.054 | W -0.707 ± 0.1 | H 0.121 ± 0.17 | E -0.002 ± 0.072 | I 0.134 ± 0.21 | V -0.032 ± 0.052 | M -0.213 ± 0.095 | A -0.087 ± 0.07 | N 0.001 ± 0.15 | Y -0.269 ± 0.14 | K 0.057 ± 0.077 | P -0.299 ± 0.12 | C -0.266 ± 0.15 | S -0.002 ± 0.07 | T 0.036 ± 0.099 | F -0.093 ± 0.17 | D 0.07 ± 0.095 | G -0.272 ± 0.055
K17: E -0.8 ± 0.2 | M -0.269 ± 0.12 | H -0.066 ± 0.18 | T -0.001 ± 0.1 | A -0.178 ± 0.067 | C -0.868 ± 0.34 | S -0.354 ± 0.1 | D -0.893 ± 0.38 | P -0.667 ± 0.25 | I 0.048 ± 0.2 | Q 0.035 ± 0.095 | W -0.879 ± 0.24 | R 0.007 ± 0.05
R20: D -0.645 ± 0.46 | Q -0.733 ± 0.22 | M -0.915 ± 0.27 | I -0.971 ± 0.44 | L -0.637 ± 0.11 | P -0.744 ± 0.24 | W -0.973 ± 0.24 | A -0.653 ± 0.13 | K -1.11 ± 0.43 | V -0.636 ± 0.11 | F -0.353 ± 0.3 | E -0.845 ± 0.19 | T -0.815 ± 0.21 | H -0.508 ± 0.32 | G -0.896 ± 0.13 | S -0.813 ± 0.17
F16: T -0.429 ± 0.16 | D -0.83 ± 0.28 | A -0.779 ± 0.15 | M -0.612 ± 0.23 | G -0.572 ± 0.089 | W -0.736 ± 0.15 | E -0.585 ± 0.19 | Q -0.541 ± 0.19 | N -0.713 ± 0.37 | R -0.621 ± 0.084 | L -0.633 ± 0.14 | V -0.515 ± 0.1 | P -0.789 ± 0.23 | K -0.61 ± 0.19 | I -0.532 ± 0.25
Q15: H -0.075 ± 0.14 | A -0.067 ± 0.065 | W -0.288 ± 0.12 | G -0.18 ± 0.056 | K -0.118 ± 0.085 | T -0.112 ± 0.1 | R -0.047 ± 0.053 | P -0.745 ± 0.21 | S -0.014 ± 0.079 | L -0.184 ± 0.076 | D 0 ± 0.12 | E -0.092 ± 0.082 | V -0.078 ± 0.06 | N 0.301 ± 0.16 | F -0.122 ± 0.37 | C -0.342 ± 0.16 | I 0.2 ± 0.21 | M 0.124 ± 0.075
